{
  "source": "patent US20100249184A1",
  "about": "“INDUCTION AND/OR MAINTENANCE OF TUMOR DORMANCY BY DISRUPTION OF UROKINASE PLASMINOGEN ACTIVATOR RECEPTOR-INTEGRIN INTERACTION” (MOUNT SINAI SCHOOL OF MEDICINE, priority 2007, published 2010)",
  "key": {"[1]": {"biological_target": "T1, immobilized pro-uPA^S356A (Homo sapiens, UniProt P00749, S376A)", "T1 construct": "Coupling of pro-uPA^S356A to the sensor chip by EDC/NHS", "experiment": "Kinetics of pro-uPA/uPAR interaction by surface plasmon resonance", "type": "binding", "settings": "soluble uPAR (residues 1-283), 20° C."}, "[2]": {"biological_target": "T2, purified human α5β1-integrin (Homo sapiens, UniProt P05556+P08648)", "T2 construct": "purchased Chemicon International (Temecula, Calif.)", "T2 sequence (P08648 42-894 limits assumed)": "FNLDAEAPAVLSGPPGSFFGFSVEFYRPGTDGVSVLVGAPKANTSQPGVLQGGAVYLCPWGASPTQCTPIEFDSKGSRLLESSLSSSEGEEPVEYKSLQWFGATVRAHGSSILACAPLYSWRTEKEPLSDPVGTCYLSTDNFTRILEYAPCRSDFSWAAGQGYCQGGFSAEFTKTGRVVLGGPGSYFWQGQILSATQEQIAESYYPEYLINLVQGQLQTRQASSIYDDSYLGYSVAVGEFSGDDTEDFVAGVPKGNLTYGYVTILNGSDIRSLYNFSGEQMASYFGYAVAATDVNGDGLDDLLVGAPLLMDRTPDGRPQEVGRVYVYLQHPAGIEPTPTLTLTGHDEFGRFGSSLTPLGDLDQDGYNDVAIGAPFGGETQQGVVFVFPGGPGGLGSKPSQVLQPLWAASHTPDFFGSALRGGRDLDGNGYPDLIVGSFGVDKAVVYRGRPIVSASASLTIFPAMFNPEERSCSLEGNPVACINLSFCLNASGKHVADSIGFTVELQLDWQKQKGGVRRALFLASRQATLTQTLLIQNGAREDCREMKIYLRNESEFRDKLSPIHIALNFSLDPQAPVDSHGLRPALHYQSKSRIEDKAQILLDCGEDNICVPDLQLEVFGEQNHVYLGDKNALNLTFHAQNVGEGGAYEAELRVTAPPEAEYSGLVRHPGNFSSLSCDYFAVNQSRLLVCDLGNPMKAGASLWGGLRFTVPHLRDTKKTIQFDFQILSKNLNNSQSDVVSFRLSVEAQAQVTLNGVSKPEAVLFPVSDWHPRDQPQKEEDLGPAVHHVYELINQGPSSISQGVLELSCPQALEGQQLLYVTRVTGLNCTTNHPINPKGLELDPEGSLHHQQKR", "T2 sequence (P08648 895-1049 limits assumed)": "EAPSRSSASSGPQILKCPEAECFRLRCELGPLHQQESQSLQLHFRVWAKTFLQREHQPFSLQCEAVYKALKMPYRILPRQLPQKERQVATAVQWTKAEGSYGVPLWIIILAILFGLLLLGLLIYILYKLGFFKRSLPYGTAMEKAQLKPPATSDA", "T2 sequence (P05556 21-798)": "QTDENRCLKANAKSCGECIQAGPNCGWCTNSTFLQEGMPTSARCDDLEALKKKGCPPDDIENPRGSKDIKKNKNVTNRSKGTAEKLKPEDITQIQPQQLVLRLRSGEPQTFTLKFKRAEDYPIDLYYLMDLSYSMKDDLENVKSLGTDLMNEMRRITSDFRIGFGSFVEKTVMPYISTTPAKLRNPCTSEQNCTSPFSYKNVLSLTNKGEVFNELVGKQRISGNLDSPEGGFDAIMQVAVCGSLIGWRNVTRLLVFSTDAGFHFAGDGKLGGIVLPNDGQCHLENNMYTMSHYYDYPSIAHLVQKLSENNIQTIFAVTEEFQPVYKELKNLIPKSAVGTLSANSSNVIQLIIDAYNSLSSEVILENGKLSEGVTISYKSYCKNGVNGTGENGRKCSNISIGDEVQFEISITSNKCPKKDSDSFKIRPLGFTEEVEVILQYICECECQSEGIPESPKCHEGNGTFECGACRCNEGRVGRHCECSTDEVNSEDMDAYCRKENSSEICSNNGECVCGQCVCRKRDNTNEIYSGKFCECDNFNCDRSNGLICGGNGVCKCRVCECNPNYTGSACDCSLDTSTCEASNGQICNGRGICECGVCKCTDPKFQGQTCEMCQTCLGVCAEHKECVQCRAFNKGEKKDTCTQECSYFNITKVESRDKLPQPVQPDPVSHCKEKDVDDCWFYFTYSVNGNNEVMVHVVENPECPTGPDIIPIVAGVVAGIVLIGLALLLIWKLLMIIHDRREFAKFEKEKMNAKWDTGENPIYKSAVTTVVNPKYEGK", "experiment": "Solid phase dot-ELISA: α5β1-integrin binding to immobilized uPAR peptides and suPAR", "settings": "for α5β1-integrin binding to immobilized peptide: peptide immobilized on nitrocellulose, α5β1-integrin 750 ng/ml", "method": "FIGS. 1A-H show the interaction between α5β1-integrin and immobilized uPAR and uPAR-derived synthetic peptides through solid-phase dot-ELISA. […] Bound integrin was detected with anti-α5 integrin antibody followed by goat anti-rabbit IgG (H+L) HRP conjugated secondary antibody and developed with enhanced chemiluminescence (“ECL”). FIG. 1B is a graph showing that binding of integrin to suPAR is saturable. SuPAR (1.5 μg) was immobilized on nitrocellulose membrane in triplicates, incubated with 0, 0.1, 0.5, 1, 2, and 4 μg/ml of α5β1-integrin and tested for integrin binding as in FIG. 1A. The dots were scanned with NIH Image. Mean and SE are shown. […] Peptides representing regions located in each of the three uPAR-domains were immobilized, incubated with α5β1-integrin, and analyzed as in FIG. 1A. Only peptide 240-248 binds α5β1-integrin. FIG. 1D is a graph showing that peptide 240-248 inhibits integrin binding to suPAR. The α5β1-integrin (750 ng/ml) was pre-incubated for 15 min at room temperature with 100 fold molar excess of 240-248 or 17-24 peptides, or with no peptide (Control) and the mixtures were applied to immobilized suPAR (1.5 μg), 2 dots per mixture, and developed as in FIG. 1A. The dots were scanned with NIH Image. The results (bars) show % of control, the lines show range. FIG. 1E is a graph showing binding of α5β1- and α3β1-integrin to suPAR and peptide 240-248. Dot-ELISA was performed in duplicate as in FIG. 1A, except that purified α5β1-integrin and α3β1-integrin (750 ng/ml) were used. Bound integrins were detected with the appropriate previously titrated antibodies followed by goat anti-rabbit IgG (H+L) HRP conjugated secondary antibody and detection with ECL. The graph represents the mean and range of two values: α5β1-integrin binding to peptide 240-248 (▪) or SuPAR (▴); α3β1-integrin binding to peptide 240-248 ([…]) and SuPAR (x). […] Peptide 240-248 (domain III), 17-24 (domain I), and the S245A mutant of peptide 240-248 were immobilized and tested for integrin binding as in FIG. 1A. FIGS. 1G-H show the crystal structure of human uPAR shown as a surface representation. The three individual domains of uPAR in FIG. 1G are indicated as follows: D1 is on the right side, DII is on the top of the model, and Diii is on the left of the model. In FIG. 1H, the order of the domains is inversed. […] The location of the COOH-terminal in uPAR domain III harboring the GPI-anchor is indicated by the arrow (FIG. 1H). FIGS. 1G-H were created by the program PyMol (DeLano Scientific) using the coordinates 1YWH.\nFIGS. 2A-B show solid phase dot-ELISA of suPAR. […] Binding was detected as in FIG. 1A and the dots were scanned with NIH Image. Mean of the two-scanned value for each suPAR concentration are shown in the bottom panel. Mutation of residues in the 239-249 sequence reduced the integrin binding by ˜50 to 94%. suPAR^E33A (▪), suPAR^wt (▴), suPAR^R239A (♦), suPAR^H249A (x), suPAR^Q248A (∘), suPAR^M246A ([…]), suPAR^S245A (□).\nSynthetic uPAR-derived peptides and mutant proteins were diluted to 0.5, 1, and 2 μg/100 μl of PBS. […] The strips, pinned to the bottom of a plastic box, were washed with TBS with 0.1% Tween 20, overlaid with 500 μl of rabbit anti-integrin α5 polyclonal antibody (1:650) for 1 hr at RT, washed with TBST twice, incubated with goat anti-rabbit IgG (H+L) HRP conjugated secondary antibody (1:2000) for 1 hr, washed 3 times with TBST, and developed with ECL. The dots were scanned with NIH image."}, "T-HEp3 cells [3]": {"test_system": "T-HEp3 cells", "experiment": "Screening of compounds by luciferase assay (Luc-Elk activity as readout for ERK)", "type": "cell-based, human", "settings": "5 μM compound, 16 h", "method": "To test the effect of uPAR-integrin disruption by uPAR-docked compounds on ERK activation, T-HEp3 cells were transiently co-transfected with pFA-Elk1-fusion plasmid and pD700-luciferase plasmid in a 96-well plate. These plasmids report the state of ERK activation through luciferase activity level. After 24 h of transfection, cells were serum starved for 5 h and incubated with PD98059 (Calbiochem, San Diego, Calif.) (25 and 50 μM) and 5 μM of each compound prepared in DMEM. Following 16 h of incubation with compounds, the cells were lysed directly in Steady glo-luciferase lysis buffer (1:1) from Promega and read on Tecan Safire2™ using Magellan 6.0 software. Histographs representing the percent inhibition of Luc-Elk activity as readout for ERK reduction were generated."}, "T-HEp3 cells [4]": {"test_system": "T-HEp3 cells", "experiment": "Fibronectin-fibrils disruption", "type": "cell-based, human", "settings": "cells displaying fibronectin fibrils; control had 90.2% fibril positive cells; compounds 5 and 10 μM, 16 h", "method": "To test the effects of fibronectin-fibril disruption by the compounds, T-HEp3 cells were incubated in 5% fibronectin-depleted fetal bovine serum (FBS)/DMEM with 0, 2.5, 5, 7, and 10 μM of the compounds or anti-uPAR antibody (R2, 20 μg/ml) or anti-α5β1 antibody (BIIG2, 20 μg/ml) or MEK inhibitor (PD98059, 25 μM) as a […] at room temperature for 15 min prior to plating them in chambered slides. […] The cells were fixed with 3% paraformaldehyde for 20 min and the bound fibronectin was detected using rabbit anti-human fibronectin antibody and with FITC-conjugated secondary antibody.\nCompounds MS0012479 and MS0019128 and their analogs were tested for fibronectin-fibril disruption. […] A total of 700 to 1150 cells were counted in 5 individual fields. Cells displaying fibronectin fibrils were then counted and expressed as a percentage of total cells. The mean obtained from the compound-treated cells was expressed as a percentage of control. The control had 90.2% of fibril positive cells (Table 2)."}, "β1-integrin": {"biological_target": "T3, β1-integrin (Homo sapiens, UniProt P05556)", "T3 construct": "endogenous in cells; host or cells: HEK293 cells (ATCC), transiently transfected with pcDNA3.1 vector, uPAR^wt or uPAR^S245A", "T3 sequence (P05556 21-798)": "as above", "T3 sequence (P08648 42-894 partner limits assumed)": "as the sequence (P08648 42-894 limits assumed) above", "T3 sequence (P08648 895-1049 partner limits assumed)": "as the sequence (P08648 895-1049 limits assumed) above", "experiment": "Detection of active β1 integrin by FACS (HUTS-4 antibody)", "type": "cell-based", "settings": "vector transfected HEK293 cells; 1 mM MnCl2; untreated 50.9%", "method": "FIGS. 3A-C illustrate that […] expressed in cells has reduced ability to activate α5β1-integrin. […] HEK293 cells were transfected with pcDNA3.1 (vector), uPAR^wt, or uPAR^S245A and used 48 hrs later. Vector-transfected cells incubated with medium alone or with medium with 1 mM MnCl2, followed by HUTS-4 and uPAR-transfected cells (uPAR^wt and uPAR^S245A) incubated with HUTS-4 or isotype matched Ig (IgG2b) were then incubated with secondary rabbit-anti mouse IgG coupled to Alexa 488. uPAR expression was detected using anti-uPAR antibody (R2). In the upper panels, the results are plotted as number of events vs. fluorescence intensity. The numbers indicate percent of total population above the median fluorescence intensity determined in vector-transfected cells. The lower panel relates to overlay of uPAR in uPAR^wt (black line) and uPAR^S245A (grey line) transfected cells. […] Cell-bound fibronectin was detected by immunofluorescence 48 hrs after transfection. […] HEK293 cells plated in 60 mm dishes were transfected and treated as in FIG. 3B, and the DOC-insoluble fibronectin was analyzed by 6% PAGE and Western blot under non-reducing conditions. […]\nHEK293 cells were transiently transfected with pcDNA3.1, uPAR^wt, and uPAR^S245. […] Finally, cells were washed and suspended in 400 μl of FACS buffer and analyzed in FACS Canto (Becton Dickinson, Calif.) using FACSDiva software. […]"}, "[5]": {"biological_target": "α5β1-integrin endogenous on HEK293, D-HEp3 and T-HEp3 cells (human) (UniProt P08648)", "sequence (P08648 42-1049, chain 1 of 2)": "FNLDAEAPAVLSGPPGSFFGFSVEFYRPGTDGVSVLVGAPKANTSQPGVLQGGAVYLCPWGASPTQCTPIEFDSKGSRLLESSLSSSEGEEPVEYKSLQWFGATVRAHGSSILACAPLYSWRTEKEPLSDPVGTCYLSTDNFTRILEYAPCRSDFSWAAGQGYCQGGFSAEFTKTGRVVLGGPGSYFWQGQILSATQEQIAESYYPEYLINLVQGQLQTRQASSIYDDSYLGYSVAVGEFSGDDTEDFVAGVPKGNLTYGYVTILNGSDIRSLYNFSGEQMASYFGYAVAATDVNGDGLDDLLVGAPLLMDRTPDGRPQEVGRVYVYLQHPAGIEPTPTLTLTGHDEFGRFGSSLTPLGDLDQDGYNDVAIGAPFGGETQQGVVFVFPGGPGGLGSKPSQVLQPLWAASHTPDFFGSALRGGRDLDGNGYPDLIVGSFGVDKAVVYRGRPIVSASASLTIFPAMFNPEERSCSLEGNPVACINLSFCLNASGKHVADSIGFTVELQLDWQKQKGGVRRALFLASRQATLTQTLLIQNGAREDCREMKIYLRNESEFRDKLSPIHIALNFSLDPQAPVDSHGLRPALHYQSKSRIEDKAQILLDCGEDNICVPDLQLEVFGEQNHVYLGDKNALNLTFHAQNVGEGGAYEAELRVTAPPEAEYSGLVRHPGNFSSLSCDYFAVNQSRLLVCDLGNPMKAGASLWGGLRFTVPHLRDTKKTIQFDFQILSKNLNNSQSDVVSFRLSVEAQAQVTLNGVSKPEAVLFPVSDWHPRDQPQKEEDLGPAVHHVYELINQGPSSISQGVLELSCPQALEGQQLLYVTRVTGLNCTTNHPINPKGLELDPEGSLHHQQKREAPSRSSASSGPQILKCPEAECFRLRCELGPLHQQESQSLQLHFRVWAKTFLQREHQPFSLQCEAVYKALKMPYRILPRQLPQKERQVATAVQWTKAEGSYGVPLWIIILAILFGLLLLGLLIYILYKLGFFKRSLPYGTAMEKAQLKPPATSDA", "sequence (P05556 21-798, chain 2 of 2, further chain)": "as the sequence (P05556 21-798) above", "experiment": "cell-based or functional assay"}, "[6]": {"biological_target": "endogenous β1 integrin on HEK293 cells (active state) (human) (UniProt P05556)", "sequence (P05556 21-798)": "as above", "experiment": "flow cytometry, HEK293 cells expressing uPAR^wt"}, "[7]": {"biological_target": "endogenous β1 integrin on HEK293 cells (active state) (human) (UniProt P05556)", "experiment": "flow cytometry, HEK293 cells expressing uPAR^S245A"}, "[8]": {"biological_target": "endogenous β1 integrin on HEK293 cells (active state) (human) (UniProt P05556)", "experiment": "flow cytometry, vector-transfected HEK293 cells, medium alone"}, "[9]": {"biological_target": "endogenous β1 integrin on HEK293 cells (active state) (human) (UniProt P05556)", "experiment": "flow cytometry, vector-transfected HEK293 cells treated with Mn++ (1 mM MnCl2)"}},
  "note": "“Also recorded” adds a separate entry of the source.",
  "data": [
    {"compound": "uPAR mutant L66A: soluble uPAR single site mutant L66A, control known to affect uPA-uPAR interaction", "values": [
      {"measurement": "koff", "setting": "[1]", "result": "10.6 10^−4 S^−1"},
      {"measurement": "kon", "setting": "[1]", "result": "2.26 10^5 m^−1 S^−1"}
    ]},
    {"compound": "66-74: synthetic uPAR-derived peptide, domain I 66-74: LTEVVCGLD (SEQ ID NO:6)", "values": [
      {"measurement": "α5β1-integrin binding to immobilized peptide", "setting": "[2]", "result": "no binding"}
    ]},
    {"compound": "84-95: synthetic uPAR-derived peptide 84-95: AVTYSRSRYLEC (SEQ ID NO:7)", "values": [
      {"measurement": "α5β1-integrin binding to immobilized peptide", "setting": "[2]", "result": "no binding"}
    ]},
    {"compound": "N=C(N/N=C\\c1cccc(O)c1)c1ccccn1", "note": "[MS0019126]", "values": [
      {"measurement": "ERK inhibitory activity", "setting": "T-HEp3 cells [3]", "result": "very strong; also recorded: showed ERK inhibitory activity"},
      {"measurement": "Quantification (% of control)", "setting": "T-HEp3 cells [4]", "result": "66.0 % of control"}
    ]},
    {"compound": "108-118: synthetic uPAR-derived peptide, domain II 108-118: GRHQSLQCRSP (SEQ ID NO:8)", "values": [
      {"measurement": "α5β1-integrin binding to immobilized peptide", "setting": "[2]", "result": "no binding"}
    ]},
    {"compound": "uPAR mutant E33A: purified soluble uPAR (residues 1-283) with single amino acid mutation E33A in domain I", "values": [
      {"measurement": "α5β1-integrin binding of full-length recombinant suPAR with single amino acid mutation", "setting": "[2]; suPAR 0.5, 1.0, 2.0 μg immobilized, integrin 750 ng/ml", "result": "no effect"},
      {"measurement": "koff", "setting": "[1]", "result": "2.19 10^−4 S^−1"},
      {"measurement": "kon", "setting": "[1]", "result": "2.52 10^5 m^−1 S^−1"}
    ]},
    {"compound": "[Mn+2]", "note": "[Mn^++]", "values": [
      {"measurement": "population with fluorescence above the median (HUTS-4)", "setting": "β1-integrin", "result": 86.2, "unit": "%"}
    ]},
    {"compound": "uPAR mutant R239A: purified soluble uPAR single amino acid mutant R239A", "values": [
      {"measurement": "koff", "setting": "[1]", "result": "1.48 10^−4 S^−1"},
      {"measurement": "kon", "setting": "[1]", "result": "2.33 10^5 m^−1 S^−1"}
    ]},
    {"compound": "BIIG2 (α5β1-integrin function blocking antibody)", "values": [
      {"measurement": "fibronectin-fibril positive T-HEp3 cells, % of control", "setting": "[5]", "result": "24.1 % of control"}
    ]},
    {"compound": "uPAR mutant H249A: purified soluble uPAR single amino acid mutant H249A", "values": [
      {"measurement": "koff", "setting": "[1]", "result": "1.92 10^−4 S^−1"},
      {"measurement": "kon", "setting": "[1]", "result": "3.84 10^5 m^−1 S^−1"}
    ]},
    {"compound": "HUTS-4 antibody", "values": [
      {"measurement": "% of population with fluorescence intensity above the median", "setting": "[6]", "result": 74.4, "unit": "%"},
      {"measurement": "% of population with fluorescence intensity above the median", "setting": "[7]", "result": 44.6, "unit": "%"},
      {"measurement": "% of population with fluorescence intensity above the median", "setting": "[8]", "result": 50.9, "unit": "%"},
      {"measurement": "% of population with fluorescence intensity above the median", "setting": "[9]", "result": 86.2, "unit": "%"}
    ]}
  ]
}
